Experimental findings from publication PMC4018492 (Genes & Development, 2014) are described below.

The target of test [1] is T1, WDR5_(23–334) (human, UniProt P61964 23-334). Briefly: SEC.
Test [2] deals with 6xHis-WDR5 (residues 23–334) (human, UniProt P61964 23-334). In words: pull-down.
Test [3] has as its target T1, WDR5_(23–334). In words: ITC. On the technique in general: ITC needs no label: the signal is the heat of the interaction.

B1: KANSL2_(381–492) (domain or fragment)
chain: DDLEAGPMDLYLSAAELQPTESLPLEFSDDLDVVGDGMQCPPSPLLFDPSLTLEDHLVKEIAEDPVDILGQMQMAGDGCRSQGSRNSEKASAPLSQSGLATANGKPEPTSIS
In the case of B1, the binding result in the test with WDR5_(23–334) [1] was “binds”.

B2: KANSL1_(537–773) (domain or fragment)
chain: KSCGALRPVNGVINTLQPVLADHIPGDSSDAEEQLHKKQRLNLVSSSSDGTCVAARTRPVLSCKKRRLVRPNSIVPLSKKVHRNSTIRPGCDVNPSCALCGSGSINTMPPEIHYEAPLLERLSQLDSCVHPVLAFPDDVPTSLHFQSMLKSQWQNKPFDKIKPPKKLSLKHRAPMPGSLPDSARKDRHKLVSSFLTTAKLSHHQTRPDRTHRQHLDDVGAVPMVERVTAPKAERLLN
For B2, the binding result in test [2] is “binds”.

Usually Kd stands for the constant that tells how readily two partners part at equilibrium. Low readings indicate tighter binding, high ones weaker binding. The molecule DGTCVAARTRPVLSY [KANSL1 WIN motif-containing peptide (585-DGTCVAARTRPVLS-598-Y)] came in with a Kd in the test with WDR5_(23–334) [3] of 180 nM.
